B1: BRD3R shRNA: shRNA that specifically targets BRD3R (SEQ ID NO: 42 and 43) (nucleic acid)
chain 1: CTAGGAACCTCTGTAATTGTTTCCTGGCTCGAGCCAGGAAACAATTACAGAGGTTCTTTTTT
chain 2: AAAAAAGAACCTCTGTAATTGTTTCCTGGCTCGAGCCAGGAAACAATTACAGAGGTTC
B2: LIN28: established reprogramming factor (protein, UniProt Q9H9Z2 2-209, looked up)
Protein lin-28 homolog A: GSVSNQQFAGGCAKAAEEAPEEAPEDAARAADEPQLLHGAGICKWFNVRMGFGFLSMTARAGVALDPPVDVFVHQSKLHMEGFRSLKEGEAVEFTFKKSAKGLESIRVTGPGGVFCIGSERRPKGKSMQKRRSKGDRCYNCGGLDHHAKECKLPPQPKKCHFCQSISHMVASCPLKAQQGPSAQGKPTYFREEEEEIHSPTLLPEAQN

Legend:
[1] = test system: BJ cells; experiment: Reprogramming of human fibroblasts scored by TRA-1-60+ colonies/clusters; type: cell-based; details: for reprogramming activity (TRA-1-60+ colonies): used with 3F in BJ cells, compared to OSK-GFP control
Method: Briefly (FIG. 1A), 2×10^4 of BJ cells were seeded in each well of a 24-well plates. The second day, fibroblasts were transduced with OCT4 (10 MOI), SOX2 (5 MOI), KLF4 (5 MOI) along with 250 μl of individual kinase viral supernatant freshly packaged in one well of a 6-well plate. Twenty-two cDNAs were evaluated in one 24-well plate. One well is OSK control, and one well of cells is transduced with OSK plus 250 μl of GFP viral supernatant as a second control. Virus was removed next day with fresh fibroblast medium. Forty-eight hours after transduction, fibroblasts were transferred from one well into a 60-mm dish for continued reprogramming. The next day of re-seeding, fibroblast medium was replaced with E7 medium (E8 minus TGF beta) plus 100 μM of sodium butyrate. From day 18 of reprogramming on, E8 media was used. On day 25 of reprogramming, reprogramming dishes were stained for ALP or TRA-1-60 markers.
• Concentration of virus: The reprogramming viruses (OCT4, SOX2, KLF4, MYC and BET members) were concentrated before use except for library viruses. The lentiviral supernatant was centrifuged at 3,000×g for 10 mins at 4° C. to remove the cell debris. Thirty ml of the viral supernatant was then transferred into each 50-ml tube. 7 ml of 50% PEG-6000 stock solution (final concentration of 8.5%) and 4.1 ml of 4 M NaCl stock solution was added to each tube (final concentration of 0.4 M). The virus mixture was stored at 4° C. for 3-5 h.
• Cell culture and reprogramming: Human fibroblast cells (BJ ATCC CRL-2522®) were cultured in fibroblast medium: DMEM, 10% heat-inactivated FBS, 0.1 mM 2-mercaptoethanol, 100 U/ml penicillin, 100 μg/ml streptomycin, 0.1 mM MEM NEAA and 4 ng/ml human bFGF. For reprogramming, seed BJ cells into 24-well plate at 2×10^4 cells/well. Twenty-four hours after plating, pre-mix the OSK (OCT4, 10 MOI; SOX2, 5 MOI and KLF4, 5 MOI) viruses (shown in FIGS. 6B-6D, SEQ ID NO: 58-60, respectively), and add the OSK virus along with 250 μl supernatant of individual kinase virus into respective wells. Incubate overnight. Next morning, remove viruses by replacing virus-containing medium with fresh fibroblast medium. Twenty-four hours after transduction, the cells were re-seeded from one well into one matrigel-coated 60-mm dish. Next day, replace fibroblast medium with reprogramming media (E7 plus sodium butyrate at 100 μM). On 18 day, start to use E8 media. On day 25 of reprogramming, stain the reprogramming cells for alkaline phosphatase or TRA-1-60.

[2] = test system: BJ cells; experiment: Sensitivity test of the optimized small-vessel reprogramming protocol (ALP staining); type: cell-based, human; details: n=3
From the text: • Optimization of screening protocol: Several strategies to make the screening of cDNA library more efficient and sensitive were used. First, the lentiviral reprogramming vector was modified so that it is more efficient and consistent in reprogramming human cells. This was achieved by using EF1a promoter and co-expression of GFP, which makes titration of viral vectors easier and faster. Second, the efficient Gateway cloning was used to transfer the human kinase library onto the modified lentiviral destination vector. 24 randomly selected of the 89 cloned cDNAs were sequenced, and verified precise cloning for all of the 24 genes. Third, a protocol to simultaneously package 24×n individual transgene viruses in individual wells of 6-well plates was established. The kinase virus was not concentrated and the supernatant directly used in screening protocol. Almost 100% of transduction of BJ cells in one well of a 24-well plate with 250 μl of supernatant using GFP reporter construct on the same destination vector (FIGS. 6J and 6K) was achieved. […] To test the sensitivity of the new screening protocols, the reprogramming activities of two established reprogramming factors: NANOG and LIN28, were evaluated. […]
Briefly (FIG. 1A), 2×10^4 of BJ cells were seeded in each well of a 24-well plates. […] Twenty-two cDNAs were evaluated in one 24-well plate. […]

[3] = target: T1, tetra-acetylated H4 (H4K5/8/12/16Ac) (Homo sapiens, UniProt P62805); experiment: Histone peptide pull-down assay; type: binding; details: lysates of human fibroblasts overexpressing BRD3R or BRD3; western with BRD3 antibody
T1 construct: Histone tails used for peptide pull-down experiments; Peg-biotin (chemical label); incubated with lysate of human BJ fibroblasts transduced with BRD3R or BRD3 virus
Method: • Histone peptide pull-down assay: H3 or H4 histone tails with 8 different acetylation modifications were evaluated for binding with BRD3R and BRD3. One unmodified tail for each histone was used for negative control.
Human BJ fibroblasts were transduced with BRD3 or BRD3R viruses. Three days post-transduction, cells were lysed by non-denaturing lysis buffer (20 mM HEPES pH 7.9, 150 mM NaCl, 1 mM MgCl2, 0.5% NP40, 10 mM NaF, 0.2 mM NaVO4, 10 mM β-glycerol phosphate, 5% glycerol, 1 mM DTT, 1 mM PMSF and protease inhibitors). Twenty μg of the cell lysates were incubated with 1 μg biotinylated peptide in 300 μl binding buffer (50 mM Tris pH 7.5, 150 mM NaCl, 0.1% NP-40, 1 mM PMSF and protease inhibitors) at 4° C. for overnight. The next day, 30 μl of Dynabeads M-280 Streptavidin was added into each sample (Invitrogen, 11205D). The mixture of proteins, antibodies and beads were further incubated with gentle rotation at 4° C. for 1 h. The beads were then washed with binding buffer three times. The bound proteins were resuspended in 60 μl of 2× SDS sample buffer. The pull-down proteins were analyzed by western using antibody of BRD3 (Proteintech, 11859-1-AP). Two micrograms of cell lysates were loaded as input control. For semi-quantification, band density was normalized to the corresponding inputs.

[4] = test system: BRD3R mRNA; experiment: Knockdown of BRD3R mRNA by shRNA (RT-qPCR); type: cell-based, human
Method: • shRNA cloning: BRD3R shRNAs at XbaI and HpaI sites on the shRNA vector PLVH-U6-EF1a-AcGFP were cloned. Correct cloning was verified by sequencing. An shRNA targeting the firefly luciferase was used as a control.
• RT-qPCR: Cells were harvested with Trizol reagent and stored at −80° C. until use. Total RNA was extracted using the Direct-zol™ Miniprep kit (R2052). cDNA was prepared using the M-MLV reverse transcriptase (cat #28025-013) per manufacturer's instruction. Quantitative PCR was performed on ViiA 7 Real-time PCR system (Applied Biosystem) using SYBR-Green Master PCR mix (Clontech, Cat #639676) in triplicates. All quantifications were normalized to an endogenous GAPDH control.

| Molecule | reprogramming activity (TRA-1-60+ colonies) [1] | increase in reprogramming efficiency [2] | other results |
| --- | --- | --- | --- |
| BRD2: BET subfamily bromodomain protein | none did |  |  |
| NANOG: established reprogramming factor [reference compound] |  | 5.1 × |  |
| BRD3: canonical BRD3 (NP_031397; 726 aa, SEQ ID NO: 45), BET bromodomain protein | none did |  | binding to H4K5/8/12/16Ac peptide [3]: weaker than BRD3R |
| B1 |  |  | impairment of reprogramming ([1]; BRD3R knockdown by shRNA, TRA-1-60 staining): 58%; knockdown of BRD3R mRNA [4]: significant knockdown |
| B2 |  | 2.4 × |  |
